Source: patent publication US20160159888A1 (CANCER RESEARCH TECHNOLOGY, published 2016)

What was measured:
[1] = target: T1, S100A4 peptide 8 (FLSCIAMMCNEF, 12-mer: 78-89) (human); experiment: peptide ELISA (FIG. 4A)
T1 construct: also called P8
T1 peptide: FLSCIAMMCNEF

[2] = target: T2, S100A4 peptide 7 (RDNEVDFQEYCV, 12-mer: 66-77) (human); experiment: peptide ELISA (FIG. 4A)
T2 construct: also called P7
T2 peptide: RDNEVDFQEYCV

[3] = target: T3, mouse S100A4 protein (mouse, UniProt P07091 2-101, limits assumed); experiment: ELISA screen of hybridoma clones on mouse S100A4
T3 construct: also called murine S100A4; recombinant mouse S100A4 protein
T3 sequence (P07091 2-101 limits assumed, one chain of several): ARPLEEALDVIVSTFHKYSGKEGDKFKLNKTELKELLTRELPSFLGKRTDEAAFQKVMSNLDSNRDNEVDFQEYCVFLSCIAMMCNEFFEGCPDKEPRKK

[4] = target: T4, human S100A4 protein (human, UniProt P26447 2-101, limits assumed); experiment: Western blot of recombinant proteins and of cell extracts (FIG. 1)
T4 construct: Recombinant protein on blots and endogenous protein in extracts of human cell lines; also called human S100A4 recombinant protein
T4 sequence (P26447 2-101 limits assumed, one chain of several): as the sequence (P07091 2-101 limits assumed, one chain of several) above, with R2C, E6K, I11M, T31S, V57L, C92F, E96Q counted along it

[5] = target: T5, recombinant S100A4 protein (species not stated for the experiment); experiment: SPR (BIAcore 2000), S100A4 amine-coupled to CM5 chip, mAb injected, 1:1 fit
T5 construct: also called immobilized S100A4; oligomeric S100A4
T5 sequence (P07091 whole entry): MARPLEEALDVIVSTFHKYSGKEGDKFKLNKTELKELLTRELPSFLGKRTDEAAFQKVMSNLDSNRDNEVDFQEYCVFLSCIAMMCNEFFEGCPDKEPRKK
Protocol: All SPR analyses were conducted on a BIAcore 2000 system (GE-Healthcare Life Sciences, Upsala, Sweden). The experiments were performed at 25° C. using HBST/Ca (10 mM HEPES, 150 mM NaCl, 0.005% Tween® and 50 μM CaCl2) as running buffer. The S100A4 protein was immobilized on a sensor chip CM5 (GE-Healthcare, BR-1000-12) using the amine coupling kit from GE Healthcare (BR-1000-50). The flow rate was set to 5 μl/min. The flow cells were activated individually by injecting 35 μl freshly mixed 0.4 M EDC ((N-(3-dimethylaminopropyl)-N′-ethylcarbodiimide hydrochloride) in 0.05 M NHS (N-hydroxysuccinimide) solution. Then 5 μg/ml S100A4 protein diluted in 10 mM acetic acid, pH 5.0 was injected for 1 to 10 minutes until the desired level of immobilization was reached (about 400 to 800 RU). The remaining active groups were deactivated by injecting 35 μl 1 M ethanolamine (pH 8.5). All experiment included a reference surface which was prepared by activating and deactivating of the surface of flow cell 1 (FC1). The blank surface reference was used to correct for bulk effects and nonspecific binding. The channel referencing was done automatically by the BIACORE 2000 control software.
The injections were performed using the KINJECT mode (injection10 min, dissociation 20-30 min). The flow rate during injection and regeneration was kept at 50 μl/min. […]

[6] = target: T6, S100A4 peptide 9 (FEGFPDKQPRKK, 12-mer: 90-101) (human); experiment: peptide ELISA, absorbance 450 nm (Pep-BG)
T6 construct: also called P9; C-terminal peptide
T6 peptide: FEGFPDKQPRKK

[7] = target: T7, pep 6; experiment: peptide ELISA, absorbance 450 nm (Pep-BG)
T7 construct: also called S100A4 peptide 6; #6 (12-mer: 54-65)
T7 chain: AFQKLMSNLDSN

[8] = target: T8, pep 3; experiment: peptide ELISA, absorbance 450 nm (Pep-BG)
T8 construct: also called S100A4 peptide 3; #3 (11-mer: 21-31)
T8 chain: GKEGDKFKLNK

[9] = target: T9, pep 5; experiment: peptide ELISA, absorbance 450 nm (Pep-BG)
T9 construct: also called S100A4 peptide 5; #5 (11-mer: 43-53)
T9 chain: PSFLGKRTDEA

[10] = target: T10, pep 4; experiment: peptide ELISA, absorbance 450 nm (Pep-BG)
T10 construct: also called S100A4 peptide 4; #4 (11-mer: 32-42)
T10 chain: SELKELLTREL

[11] = target: T11, pep 1; experiment: peptide ELISA, absorbance 450 nm (Pep-BG)
T11 construct: also called S100A4 peptide 1; #1 (10-mer: 1-10)
T11 chain: MACPLEKALD

[12] = target: T12, pep 2; experiment: peptide ELISA, absorbance 450 nm (Pep-BG)
T12 construct: also called S100A4 peptide 2; #2 (10-mer: 11-20)
T12 chain: VMVSTFHKYS

[13] = target: T13, h S100A1 (human, UniProt P23297); experiment: Western blot of purified S100 proteins on PVDF membrane
T13 construct: purified protein on a PVDF membrane; one of the 'other S100 family members'; also called human S100A1
T13 sequence (looked up): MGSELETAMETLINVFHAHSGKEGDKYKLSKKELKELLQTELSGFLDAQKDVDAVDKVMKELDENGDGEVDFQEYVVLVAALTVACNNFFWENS

[14] = target: T14, h S100A5 (human, UniProt P33763); experiment: as above
T14 construct: purified protein on a PVDF membrane; one of the 'other S100 family members'; also called human S100A5
T14 sequence (looked up): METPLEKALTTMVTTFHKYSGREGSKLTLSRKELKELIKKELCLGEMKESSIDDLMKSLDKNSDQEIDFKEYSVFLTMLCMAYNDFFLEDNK

[15] = target: T15, h S100A9 (human, UniProt P06702); experiment: as above
T15 construct: purified protein on a PVDF membrane; one of the 'other S100 family members'; also called human S100A9
T15 sequence (looked up): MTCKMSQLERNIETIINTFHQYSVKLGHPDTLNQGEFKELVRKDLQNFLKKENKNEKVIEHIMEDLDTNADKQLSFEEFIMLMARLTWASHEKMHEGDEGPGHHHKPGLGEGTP

[16] = target: T16, h S100A12 (human, UniProt P80511); experiment: as above
T16 construct: purified protein on a PVDF membrane; one of the 'other S100 family members'; no amido black loading band is visible for this lane in the scan; also called human S100A12
T16 sequence (looked up): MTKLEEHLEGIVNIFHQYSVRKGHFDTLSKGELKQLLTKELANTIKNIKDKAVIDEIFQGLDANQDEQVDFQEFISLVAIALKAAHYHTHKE

[17] = target: T17, h S100A2 (human, UniProt P29034); experiment: as above
T17 construct: purified protein on a PVDF membrane; one of the 'other S100 family members'; its amido black loading band is very faint in the scan; also called human S100A2
T17 sequence (P29034 whole entry, one chain of several): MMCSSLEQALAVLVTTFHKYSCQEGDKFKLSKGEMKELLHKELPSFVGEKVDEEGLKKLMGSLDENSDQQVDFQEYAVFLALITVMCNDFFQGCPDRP

[18] = target: T18, h S100B (human, UniProt P04271); experiment: as above
T18 construct: purified protein on a PVDF membrane; one of the 'other S100 family members'; also called human S100B
T18 sequence (looked up): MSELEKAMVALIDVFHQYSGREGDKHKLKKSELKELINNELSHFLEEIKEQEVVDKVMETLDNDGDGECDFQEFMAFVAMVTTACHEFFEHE

- binding result [1]: binds
- binding result [2]: binds
- binding result [3]: binds
- binding result [4]: binds
- Kd [5]: 0.114 nM
- kon [5]: 287000 M⁻¹ s⁻¹
- binding result [6]: no binding
- binding result [7]: no binding
- binding result [8]: no binding
- binding result [9]: no binding
- binding result [10]: no binding
- binding result [11]: no binding
- binding result [12]: no binding
- binding result [13]: no binding
- binding result [14]: no binding
- binding result [15]: no binding
- binding result [16]: no binding
- binding result [17]: no binding
- binding result [18]: no binding
B1: anti-S100A4 mouse monoclonal antibody, clone 6B12 (antibody, V domains shown)
VH: DVQLQESGPGLVKPSQSLSLTCSVTGDSFTNDYYWNWIRQFPGSKLEWMGHIGYGGNINYNPSLKNRISITRDTSKNQFFLRLTSVTTEDTATYYCTRESFYDGYPFDYWGQGTLVTVSA
VL: DIQMTQTTSSLSASLGDRVTISCRASQDIRNYLNWYQQRPGGTLKLLIYYTSRLHSGVPSRFSGSGSGTDYSLTISNLEQEDIATYFCQQGNSLPRTFGGGTKLEIK
notes: constant regions are not; also called 6B12 mAb; mAb 6B12
